Consider 19 molecules from publication PMC314469, “Protein Interaction Networks by Proteome Peptide Scanning” (PLoS Biology, 2004).

The labels stand for the following.
T1: Rvs167 SH3 (RV167_YEAST), P39743
T1 chain: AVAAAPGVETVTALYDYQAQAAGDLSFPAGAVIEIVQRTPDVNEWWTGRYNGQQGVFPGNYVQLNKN

T2: Boi2 SH3 (BOI2_YEAST), P39969
T2 chain: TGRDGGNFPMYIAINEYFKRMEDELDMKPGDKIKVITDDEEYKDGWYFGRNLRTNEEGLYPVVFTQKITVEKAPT

T3: Yfr024 SH3 (LSB3_YEAST), P43603
T3 chain: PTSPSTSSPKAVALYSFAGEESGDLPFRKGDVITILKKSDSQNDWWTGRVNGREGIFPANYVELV

T4: Boi1 SH3 (BOI1_YEAST), P38041
T4 chain: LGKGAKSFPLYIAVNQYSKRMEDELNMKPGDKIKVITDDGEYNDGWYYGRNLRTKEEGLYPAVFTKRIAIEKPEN

T5: Yhr016c SH3 (YSC84_YEAST), P32793
T5 chain: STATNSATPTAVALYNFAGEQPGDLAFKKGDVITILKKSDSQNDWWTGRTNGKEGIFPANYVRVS

In one assay the target is T1, Rvs167 SH3 (RV167_YEAST), P39743. Nature of the assay: SPOT array.
As to GITPVGPGKFSRSA [YEL050C 256-269], the normalised SPOT signal, Boehringer light units (BLU); mean over the file's lines of this peptide amounted to 32.3.
The same measure, in the same setting: to GKVPVQPRKRKSIT [YKL062W 547-560] belongs 73; to GNTPDAPKRGFLGY [YDL245C 44-57], 37.1; to GIHPGFPIRMVQYA [YPL025C 36-49], 24.6.
Same read-out and setting: to GGPPLLPQKSAAFQ [YPL084W 731-744] belongs 28.4; to GPAPPPPPRASRPT [YOR181W 384-397], 3120; to GAPPTTPSRPRTTT [YGR170W 91-104], 366.
Still for that read-out and setting: to GAPPPPPHKDHLSD [YMR280C 206-219] belongs 75.6; to GAKPKIPSKLYQSV [YBR138C 124-137], 42.7; to GLEPNTPLKSIKVD [YGL009C 340-353], 59.1.
The molecule GPPPAMPARPTATT [YBL007C 192-205] registered a normalised SPOT signal, Boehringer light units (BLU); mean over the file's lines of this peptide of 83.3.
Same read-out and setting: as for GRHPDMPTRVKNAY [YDR188W 219-232], the figure is 148.
Same read-out and setting: to GILPLAPLRPLDPL [YPL085W 915-928] belongs 57.3; to GHTPQFPTKDEVSS [YNR031C 1516-1529], 22.1; to GNIPVFPAKFGIQF [YAL010C 476-489], 50.1.
GNVPHSPVRFADTV [YJR025C 93-106] gave a normalised SPOT signal, Boehringer light units (BLU); mean over the file's lines of this peptide of 36.2.
The molecule GIKPQQPIKVDIKG [YPL105C 573-586] registered a normalised SPOT signal, Boehringer light units (BLU); mean over the file's lines of this peptide of 38.7.
Still for that read-out and setting: to GGQPPVPVRMQPQP [YBR108W 379-392] belongs 794; to GGDPTKPVRTWNDL [YEL056W 193-206], 16.4.

In another assay the target is T2, Boi2 SH3 (BOI2_YEAST), P39969. The experiment in a line: SPOT array.
GITPVGPGKFSRSA [YEL050C 256-269] gave a normalised SPOT signal, Boehringer light units (BLU); mean over the file's lines of this peptide of 55.7.
Still for that read-out and setting: as for GKVPVQPRKRKSIT [YKL062W 547-560], the figure is 85.3; as for GNTPDAPKRGFLGY [YDL245C 44-57], 27.7.
Same read-out and setting: as for GIHPGFPIRMVQYA [YPL025C 36-49], the figure is 114; as for GGPPLLPQKSAAFQ [YPL084W 731-744], 2; as for GPAPPPPPRASRPT [YOR181W 384-397], 55.8.
On the same count and under the same terms, as for GAPPTTPSRPRTTT [YGR170W 91-104], the figure is 78.2.
In turn, GAPPPPPHKDHLSD [YMR280C 206-219] yielded a normalised SPOT signal, Boehringer light units (BLU); mean over the file's lines of this peptide of 17.2.
GAKPKIPSKLYQSV [YBR138C 124-137]: the normalised SPOT signal, Boehringer light units (BLU); mean over the file's lines of this peptide amounted to 76.3.
On the same count and under the same terms, to GLEPNTPLKSIKVD [YGL009C 340-353] belongs 58.9; to GPPPAMPARPTATT [YBL007C 192-205], 140.
Still for that read-out and setting: to GRHPDMPTRVKNAY [YDR188W 219-232] belongs 44.5.
Same read-out and setting: as for GILPLAPLRPLDPL [YPL085W 915-928], the figure is 30.8.
As to GHTPQFPTKDEVSS [YNR031C 1516-1529], the normalised SPOT signal, Boehringer light units (BLU); mean over the file's lines of this peptide turned out to be 31.7.
Still for that read-out and setting: to GNIPVFPAKFGIQF [YAL010C 476-489] belongs 59.2; to GNVPHSPVRFADTV [YJR025C 93-106], 29.6.
Same read-out and setting: to GIKPQQPIKVDIKG [YPL105C 573-586] belongs 41; to GGQPPVPVRMQPQP [YBR108W 379-392], 89.9.
On the same count and under the same terms, to GGDPTKPVRTWNDL [YEL056W 193-206] belongs 42.7.

The next assay concerns the target T3, Yfr024 SH3 (LSB3_YEAST), P43603. Nature of the assay: SPOT array.
For GITPVGPGKFSRSA [YEL050C 256-269], the normalised SPOT signal, Boehringer light units (BLU); mean over the file's lines of this peptide is 21.5.
Molecule GKVPVQPRKRKSIT [YKL062W 547-560] came in with a normalised SPOT signal, Boehringer light units (BLU); mean over the file's lines of this peptide of 1430.
On the same count and under the same terms, to GNTPDAPKRGFLGY [YDL245C 44-57] belongs 658; to GIHPGFPIRMVQYA [YPL025C 36-49], 331.
On the same count and under the same terms, to GGPPLLPQKSAAFQ [YPL084W 731-744] belongs 7090.
Still for that read-out and setting: to GPAPPPPPRASRPT [YOR181W 384-397] belongs 6370.
In turn, GAPPTTPSRPRTTT [YGR170W 91-104] registered a normalised SPOT signal, Boehringer light units (BLU); mean over the file's lines of this peptide of 13900.
The same measure, in the same setting: to GAPPPPPHKDHLSD [YMR280C 206-219] belongs 47.2; to GAKPKIPSKLYQSV [YBR138C 124-137], 313; to GLEPNTPLKSIKVD [YGL009C 340-353], 68.2.
Still for that read-out and setting: to GPPPAMPARPTATT [YBL007C 192-205] belongs 11500; to GRHPDMPTRVKNAY [YDR188W 219-232], 768.
GILPLAPLRPLDPL [YPL085W 915-928] displayed a normalised SPOT signal, Boehringer light units (BLU); mean over the file's lines of this peptide of 1660.
The same measure, in the same setting: as for GHTPQFPTKDEVSS [YNR031C 1516-1529], the figure is 19.8; as for GNIPVFPAKFGIQF [YAL010C 476-489], 1730.
The same measure, in the same setting: to GNVPHSPVRFADTV [YJR025C 93-106] belongs 0.8; to GIKPQQPIKVDIKG [YPL105C 573-586], 103; to GGQPPVPVRMQPQP [YBR108W 379-392], 6010.
Same read-out and setting: as for GGDPTKPVRTWNDL [YEL056W 193-206], the figure is 203.

The next assay has as its target T4, Boi1 SH3 (BOI1_YEAST), P38041. Nature of the assay: SPOT array.
In the case of GITPVGPGKFSRSA [YEL050C 256-269], the normalised SPOT signal, Boehringer light units (BLU); mean over the file's lines of this peptide was determined as 21.6.
Molecule GKVPVQPRKRKSIT [YKL062W 547-560] came in with a normalised SPOT signal, Boehringer light units (BLU); mean over the file's lines of this peptide of 242.
Still for that read-out and setting: to GNTPDAPKRGFLGY [YDL245C 44-57] belongs 86.5; to GIHPGFPIRMVQYA [YPL025C 36-49], 69.6.
Turning to GGPPLLPQKSAAFQ [YPL084W 731-744], the normalised SPOT signal, Boehringer light units (BLU); mean over the file's lines of this peptide was found to be 128.
For GPAPPPPPRASRPT [YOR181W 384-397], the normalised SPOT signal, Boehringer light units (BLU); mean over the file's lines of this peptide was 10300.
On the same count and under the same terms, to GAPPTTPSRPRTTT [YGR170W 91-104] belongs 0.
In the case of GAPPPPPHKDHLSD [YMR280C 206-219], the normalised SPOT signal, Boehringer light units (BLU); mean over the file's lines of this peptide is 104.
Same read-out and setting: to GAKPKIPSKLYQSV [YBR138C 124-137] belongs 68.4.
On the same count and under the same terms, to GLEPNTPLKSIKVD [YGL009C 340-353] belongs 55.1; to GPPPAMPARPTATT [YBL007C 192-205], 86.8.
The same measure, in the same setting: as for GRHPDMPTRVKNAY [YDR188W 219-232], the figure is 104; as for GILPLAPLRPLDPL [YPL085W 915-928], 115; as for GHTPQFPTKDEVSS [YNR031C 1516-1529], 25.2.
GNIPVFPAKFGIQF [YAL010C 476-489] had a normalised SPOT signal, Boehringer light units (BLU); mean over the file's lines of this peptide of 46.1.
For GNVPHSPVRFADTV [YJR025C 93-106], the normalised SPOT signal, Boehringer light units (BLU); mean over the file's lines of this peptide was 115.
The same measure, in the same setting: to GIKPQQPIKVDIKG [YPL105C 573-586] belongs 115.
The same measure, in the same setting: as for GGQPPVPVRMQPQP [YBR108W 379-392], the figure is 85.9; as for GGDPTKPVRTWNDL [YEL056W 193-206], 31.1.

For a further assay, the target named is T5, Yhr016c SH3 (YSC84_YEAST), P32793. The experiment in a line: SPOT array.
In turn, GITPVGPGKFSRSA [YEL050C 256-269] returned a normalised SPOT signal, Boehringer light units (BLU); mean over the file's lines of this peptide of 81.1.
The same measure, in the same setting: to GKVPVQPRKRKSIT [YKL062W 547-560] belongs 296; to GNTPDAPKRGFLGY [YDL245C 44-57], 230; to GIHPGFPIRMVQYA [YPL025C 36-49], 154.
On to GGPPLLPQKSAAFQ [YPL084W 731-744], for which the normalised SPOT signal, Boehringer light units (BLU); mean over the file's lines of this peptide worked out at 119.
Same read-out and setting: to GPAPPPPPRASRPT [YOR181W 384-397] belongs 2360.
Still for that read-out and setting: as for GAPPTTPSRPRTTT [YGR170W 91-104], the figure is 9930; as for GAPPPPPHKDHLSD [YMR280C 206-219], 154; as for GAKPKIPSKLYQSV [YBR138C 124-137], -0.
The same measure, in the same setting: to GLEPNTPLKSIKVD [YGL009C 340-353] belongs 47.7; to GPPPAMPARPTATT [YBL007C 192-205], 1070.
Consider GRHPDMPTRVKNAY [YDR188W 219-232], for which the normalised SPOT signal, Boehringer light units (BLU); mean over the file's lines of this peptide was determined as 152.
Take GILPLAPLRPLDPL [YPL085W 915-928]: the normalised SPOT signal, Boehringer light units (BLU); mean over the file's lines of this peptide came out at 318.
The same measure, in the same setting: to GHTPQFPTKDEVSS [YNR031C 1516-1529] belongs 266.
As to GNIPVFPAKFGIQF [YAL010C 476-489], the normalised SPOT signal, Boehringer light units (BLU); mean over the file's lines of this peptide was 212.
Same read-out and setting: to GNVPHSPVRFADTV [YJR025C 93-106] belongs 49.
The same measure, in the same setting: as for GIKPQQPIKVDIKG [YPL105C 573-586], the figure is 153; as for GGQPPVPVRMQPQP [YBR108W 379-392], 1930; as for GGDPTKPVRTWNDL [YEL056W 193-206], 170.
